Test results published in the supplement of paper PMC9170038.

Test system: MS2 coat protein
Test: apparent KD of MS2 coat protein; designed switch direction (-1 OFF switch, 1 ON switch): 1; higher = weaker reporter binding
Summary of the method: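 The apparent KD reported per design is the median over clusters of curve fits to normalised cluster fluorescence. The RNA switches were transcribed on Illumina chips by stalled E. coli RNA polymerase. SNAP-549-labelled MS2 coat protein was titrated from 0.7 or 1.5 nM, doubling up to 3 µM, in Tris-HCl pH 7.5 buffer containing KCl, MgCl2, BSA, DTT, tRNA and Tween-20, with no input, 200 uM small-molecule ligand, or an oligonucleotide input.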

[1] = input ligand: microRNA oligo, concentration not stated
[2] = Eterna round: R95, input ligand: FMN 200 uM
[3] = Eterna round: R95, input ligand: microRNA oligo, concentration not stated
[4] = Eterna round: R95, input ligand: none

Sequence | apparent KD of MS2 coat protein (input ligand: FMN 200 uM) | apparent KD of MS2 coat protein [1] | apparent KD of MS2 coat protein (input ligand: none) | apparent KD of MS2 coat protein [2] | apparent KD of MS2 coat protein [3] | apparent KD of MS2 coat protein [4]
ACAUUUAGCUCUUGCACAUGAGGAUCACCCAUGUUCAGUUCACAGGAUAUCUAGUCAAACGGAUCGGAGAAGGGUGGCAGGAGC [Erquzaa] (Eterna round: R96, puzzle: Same State NG 3) | 86.3 nM | 185 nM | 294 nM | – | – | –
ACCCAAAGUAUAUGGGAACAAGCUUUUUAACAUGAGGAUCACCCAUGUACUCGUCUUGUAAGCAGUCGAAAGACUGC [Sensor 100 - 1] (puzzle: Sensor for hsa-mir-208a) | – | – | – | 312 nM | 17.4 nM | 368 nM
ACGCAGCUGGGUGAGGAUAUCGGUGGUAAAACAUGAGGAUCACCCAUGUCCGAAGCUCGGACCUCCGAGAAGGCGCCCGGCUGCG [Soinraesar Omei Mod 1] (puzzle: Same State 2) | – | – | – | 5.47 nM | 5.25 nM | 5.11 nM
ACGUGGACGAAAGUCCACGAAUAAGACGAACAUGAGGAUCACCCAUGUGAGGCGAGCUUUUUGUUCGUCUUAUAAAA [Mat - Sensor - Mod - D116] (Eterna round: R96, puzzle: Sensor for hsa-mir-208a) | 73.1 nM | 32.1 nM | 22.6 nM | – | – | –
ACUCUCACAGUAGGAUAUGUAGGAUAUGCCUACAUGAGGAUCACCCAUGUAAACAUGGCAGAAGGACAGAAGGACUUACAUUGG [pwkr ssNG2 2FMN + 1F5.2] (Eterna round: R96, puzzle: Same State NG 2) | 31.7 nM | 197 nM | 408 nM | – | – | –
ACUUGCCGCACAGGAUAUGGGUGCCUGUACAUGAGGAUCACCCAUGUUAAGGGACGGAUUACGAACCAGAAGGGUGAGGCGGGC [Tigeti] (Eterna round: R96, puzzle: Same State NG 2) | 124 nM | 418 nM | 750 nM | – | – | –
AGAAGACAUGAGGAUCACCCAUGUACAUAAUGAGGAGAAUGGGAGGAUAUGUAGAGAGAGAGGGAGCAGAAGGUCCAGUAUGAA [Default title] (Eterna round: R96, puzzle: Same State NG 3) | 98.9 nM | 99.2 nM | 148 nM | – | – | –
AGACUACAACCUCGAACAUGAGGAUCACCCAUGUAAAGAUCCAAGGAUAUGGACAGGCCGAGCUACCAGAAGGUGGAAAGAGCC [Eternabot solution 7] (Eterna round: R96, puzzle: Same State NG 3) | 40.9 nM | 38.4 nM | 69.8 nM | – | – | –
AGAGAACAUGAGGAUCACCCAUGUGGGAGAGGCAUAGGAUAUAGAGGAGAGAGCGAGGAACUAGAAGGAUGAUGGA [JR_SS1_Sub080] (puzzle: Same State 1) | – | – | – | 47.3 nM | 70.7 nM | 91.3 nM
AGAGGAGGAGCAGGAUAUUCGAAGAAGAACGUGGAAGAAGGGUUCAUGCGAUGACAUGAGGAUCACCCAUGUACCGCGCGAGGA [AK SSNG1-V2-11] (Eterna round: R96, puzzle: Same State NG 1) | 50 nM | 42.9 nM | 67.6 nM | – | – | –
AGAUCAUGACGAGGAUAUGGUACAUGAGGAUCACCCAUGUAUGUACCACGACGGAAACGUCGAAUCCAGAAGGCGUCGUGAUCA [Mat - Same State NG 2 - JL mod - D23] (Eterna round: R96, puzzle: Same State NG 2) | 47.5 nM | 100 nM | 127 nM | – | – | –
AGAUCAUGACGAGGAUAUGGUACAUGAGGAUCACCCAUGUAUGUACCAUAACGCGUACGACGAAACCAGAAGGCGUCGUGAUCA [Mat - Same State NG 2 - JL mod - D41] (Eterna round: R96, puzzle: Same State NG 2) | 9.06 nM | 12.2 nM | 20.7 nM | – | – | –
AGAUGGUGUGGAAAGGAUAUACUGUUGAGGACAUGAGGAUCACCCAUGUGGUAGAGGAGGUAAGGGUAGAAGGUUCGGGAUUGGU [JR_SS@_Sub020] (puzzle: Same State 2) | – | – | – | 29.9 nM | 32.3 nM | 41.6 nM
AGAUGUUAAUUAGGAUAUGGUCACAUGAGGAUCACCCAUGUAACGAAGAUACGAUGUGGUCAAGACUAGAAGGGAUCGCUAACA [SameState NG2 #73] (Eterna round: R96, puzzle: Same State NG 2) | 40.5 nM | 47.4 nM | 55.3 nM | – | – | –
AGCACUUCAGAAGGAUAUGAGAUGCUAAGCAUCUUAGAAGGUCUGCCGUAAAGAAACGUCCACAUGAGGAUCACCCAUGUUGCA [Eternabot solution 28] (Eterna round: R96, puzzle: Same State NG 1) | 20.9 nM | 21.9 nM | 26 nM | – | – | –
AGCGAGAUAGGCAAGGAUAUGUAGUUUGGCACAUGAGGAUCACCCAUGUCAAUCCAUUUUUUGGAACAGAAGGUGCAUUCUCUUU [ak fourth] (puzzle: Same State 2) | – | – | – | 33.4 nM | 12.2 nM | 19.5 nM

Sequence | apparent KD of MS2 coat protein (input ligand: FMN 200 uM) | apparent KD of MS2 coat protein [1] | apparent KD of MS2 coat protein (input ligand: none) | apparent KD of MS2 coat protein [2] | apparent KD of MS2 coat protein [3] | apparent KD of MS2 coat protein [4]
AGCGUCCACACAGGAUAUCACCUGCACUGCAGGUGAGAAGGGUGACCGGUGCGCAAUAACGACAUGAGGAUCACCCAUGUAAAA [Vegea] (Eterna round: R96, puzzle: Same State NG 1) | 775 nM | 38.3 nM | 143 nM | – | – | –
AGCUAGUACCGAGGAUAUACAUACAUGAGGAUCACCCAUGUAUACAUGAUUUAAUGAGACUACAUGUAGAAGGCGGUACUAGCA [JL SSNG2 1.23] (Eterna round: R96, puzzle: Same State NG 2) | 22 nM | 68.6 nM | 79.1 nM | – | – | –
AGCUAUUAAUCAGGAUAUGGUGACAUGAGGAUCACCCAUGUAUUGAUGAUUAAAUGUGGUCAAUACCAGAAGGGAUUACUAACA [SameState NG2 #51] (Eterna round: R96, puzzle: Same State NG 2) | 44.6 nM | 401 nM | 537 nM | – | – | –
AGCUAUUACGAAGGAUAUAGGGACAUGAGGAUCACCCAUGUGUACAUGAGUAAAUGUGAUCACGUCUAGAAGGUUGUACUAACA [SameState NG2 #36] (Eterna round: R96, puzzle: Same State NG 2) | 474 nM | 383 nM | 430 nM | – | – | –
AGGAUGAGAACAGGAUAUUCGACAUGAGGAUCACCCAUGUGGCAAGUAGGUGACGAUGAAUGACGGAAGAAGGGUUACGAGGAG [Same State NG2] (Eterna round: R96, puzzle: Same State NG 2) | 375 nM | 197 nM | 199 nM | – | – | –
AGGCUCAGACGAGGAUAUGAUCAUGGCGCUUCGGCGCAUACAUGAGGAUCACCCAUGUAAAGUGAUCAGAAGGUGUCUGAGCCA [SSNG2/7-B1] (Eterna round: R96, puzzle: Same State NG 2) | 13.9 nM | 11 nM | 16.1 nM | – | – | –
AGGCUCAGAGCAGGAUAUAUGUGGUCACAUGAGGAUCACCCAUGUCUCGAGCUUCGGCUCGAGGCAUAGAAGGGCUCUGAGCCA [SSNG2/5-B1] (Eterna round: R96, puzzle: Same State NG 2) | 963 nM | 22.9 nM | 53.9 nM | – | – | –
AGGCUCAGCAUGCAGGAUAUAGUCGCUGCGACAUGAGGAUCACCCAUGUGGUGUGAAAGAAAGCGCUAGAAGGGUAAAGUGAGUG [Beeran] (puzzle: Same State 2) | – | – | – | 244 nM | 467 nM | 750 nM
AGGGAGGAAGCUGAGGAUAUCGUAAGGAGGACAUGAGGAUCACCCAUGUGUAUAGAAUUGGAGGACGAGAAGGCAGAGGAGUGGG [JR_SS2_Sub052] (puzzle: Same State 2) | – | – | – | 25.5 nM | 29.3 nM | 25.6 nM
AGGUGGUGUGGAAAGGAUAUACGGUUGAGGACAUGAGGAUCACCCAUGUGGUAGAGGACGUGAGUGUAGAAGGUUCGGGAUUGGU [JR_SS@_Sub023] (puzzle: Same State 2) | – | – | – | – | 48.5 nM | –
AGGUGGUGUGGAAAGGAUAUACUGUUGAGGACAUGAGGAUCACCCAUGUGGUAGAGGACGUAAGGGUAGAAGGUUCGGGAUUGGU [JR_SS@_Sub021] (puzzle: Same State 2) | – | – | – | 46.2 nM | 50.2 nM | 75.4 nM
AGUAUACAUGAGGAUCACCCAUGUCAGUAACUGACAGGAUAUGCGUUGCAUCACUGUAAUGCAGAAGGGUCUUGUA [Same State 1 - Mod of JMF's solution 1] (Eterna round: R96, puzzle: Same State 1) | 138 nM | 324 nM | 379 nM | – | – | –
AGUAUACAUGAGGAUCACCCAUGUCAGUAACUGACAGGAUAUGCGUUGCAUCACUGUAAUGCAGAAGGGUCUUGUA [Same State 1 - Mod of JMF's solution 1] (puzzle: Same State 1) | – | – | – | 98.2 nM | 181 nM | 415 nM
AGUCCAGCAUGAGCUGGACAAAAGCAUGUACAUGAGGAUCACCCAUGUUCAUGUACAAGCUUUUUGCUCGUCUUAAA [Mat - hsa-mir-208a - Mod of JL - 45] (puzzle: Sensor for hsa-mir-208a) | – | – | – | 807 nM | 17.5 nM | 562 nM
AGUCCAGCCUAAGCUGGACAAAAGCAUGUACAUGAGGAUCACCCAUGUCAUGUACAAGCUUUUUGCUCGUCUUAAAA [Mat - hsa-mir-208a - Mod of JL - D4] (puzzle: Sensor for hsa-mir-208a) | – | – | – | 684 nM | 16.1 nM | 550 nM
